Read-outs that look alike come from different tables or passages of the source.
Legend:
[1] = target: Fucα1,6GlcNAc-CD52 (17) (human) (UniProt P31358)
[2] = target: Fucα1,6GlcNAc-CD52 (17) (human) (UniProt P31358); remark: listed apart in the source

Row | Substance | transglycosylation with sialoglycan oxazoline (12), yield of 18 [2] | further results
1 | Endo-F3 (Endoglycosidase-F3), wild type (enzyme) |  | transglycosylation with sialoglycan oxazoline (12), isolated yield of 18 [1]: 55%
2 | Endo-F3 D126Q mutant (enzyme) | > 90% | 
3 | Endo-F3 D126A mutant (enzyme) | > 90% | 
4 | Endo-F2 (Endoglycosidase-F2), wild type (enzyme) |  | transglycosylation with sialoglycan oxazoline (12), yield of 18 [1]: 25%

— patent US20120226024A1
